Assay results as given in the RNAGym collection of RNA variant scans (doi:10.1073/pnas.2313332121).
Variants at the floor of the assay were thinned out.

B1: TPR 5TU (parent)
chain: GGAUCUUCUCGAUCUAACAAAAAAGACAAAUCUGCCACAAAGCUUGAGAGCAUCUUCGGAUGCAGAGGCGGCAGCCUUCGGUGGCGCGAUAGCGCCAACGUUCUCAACUAUGACACGCAAAACGCGUGCUCCGUUGAAUGGAGUUUAUCAUG

Variants of: B1
Assay: polymerase ribozyme fitness, log enrichment relative to wild type (log ratio); higher = more active; in vitro selection for triplet polymerase activity
How it was run: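 For each subunit of a heterodimeric triplet polymerase ribozyme, a mutant library was built by PCR and transcribed, then taken through a single in vitro selection round in triplicate. Selection involved annealing to a biotinylated primer, the partner subunit and triplets, incubation frozen at −7 °C, gel excision of extended constructs, capture on streptavidin beads and RT-PCR. Genotypes were retained after Illumina sequencing of inputs and outputs only with ≥10 input reads and ≥1 read in each output. Fitness is defined as the logarithm of a genotype's enrichment relative to wild-type enrichment, using inverse-variance-weighted averages across replicates, with the logarithm taken to base 2.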

| Variant | polymerase ribozyme fitness (log ratio) |
| --- | --- |
| G58C C85G U90A U139A G140U | ≤ -4.2 |
| G58A C85U A106G | -0.0661 |
| C57U G86A A98U | -1.55 |
| G58U C76A | 0.0806 |
| U56A G81A G126U U135C A138C G141C | ≤ -4.2 |
| G58A A147U | 0.692 |
| C57G A73G C87G A98U C125G G141A | ≤ -4.2 |
| C57U G59C C93A U135G | ≤ -4.2 |
| U56G G83A C87G C116G G140C | ≤ -4.2 |
| C57U A60C G86A C105G | ≤ -4.2 |
| G58C C95U | -0.651 |
| U56G A66C G81A C87U G117A | ≤ -4.2 |
| U55G G58C | -0.558 |
| G58A G84A U104G G126U | -0.778 |
| C57A A60G C75G A91U G136A A137G U144G | ≤ -4.2 |
| G58A U101G C132G G133C A142C | -3.72 |
| C57U U101G | -0.262 |
| C57U U101A | 0.41 |
| C57U G126A A138U | -3.43 |
| C57A A89G A91G U145C U151G | ≤ -4.2 |
| U56G G71C C123G | -3.58 |
| U56G G83U C125U | -1.82 |
| G58C G94A | -0.64 |
| U56G G84A A91G A115G | -4.1 |

| Variant | polymerase ribozyme fitness (log ratio) |
| --- | --- |
| C57U C85U C87U U144G | -0.0249 |
| C57A C96U C108U G140A | ≤ -4.2 |
| G58C C85A | -3.71 |
| C57G G83A G124U G141A | -1.22 |
| U56A G83C A122G G152U | -3.94 |
| G58C G68A | -3.97 |
| U56G U151C | ≤ -4.2 |
| U55G U56A C93A C114A | ≤ -4.2 |
| C57G G58U C93A | -1.39 |
| C57A C129U G141A | ≤ -4.2 |
| C57G U82C C93A C95U C116U | -3.34 |
| U56A C69A | -1.46 |
| C57A G58U C76A C85U C96U A147G | -3.03 |
| U56C A64U C93A C95U G133C | ≤ -4.2 |
| U56A G58U A119G C131A | -2.04 |
| U56A U145G | -0.287 |
| U56A U61A | -1.51 |
| U56A U61G | -1.7 |
| U56A A73C G84U U127C | ≤ -4.2 |
| U55G G68U | -3.91 |
| U55G G68A | -3.69 |
| U56G G141U | 0.498 |
| U56A G59U C63G C87U | 1.72 |
| U56C G94C | 0.00198 |

| Variant | polymerase ribozyme fitness (log ratio) |
| --- | --- |
| C57U G59U C93U G136U | -2.96 |
| U56A U77C | -2.93 |
| G58A C85G A115G | -2.89 |
| G58U A60G A137C | ≤ -4.2 |
| C57G C96G U104G | -4.16 |
| C57G G81U C85G C96U U134A | -4.03 |
| C57U A91U | -3.95 |
| U55G C69U | -2.89 |
| G58A U61A C87A G117A | ≤ -4.2 |
| C57G G88U G94A | ≤ -4.2 |
| G58C C95U A150C | -3.72 |
| C57U C118G U145C | -0.881 |
| U56A G126U | 0.137 |
| C57G G140C | -4.08 |
| U55G G83C U135A G136A C149A | ≤ -4.2 |
| G58A C72U C76G C99G A110C | ≤ -4.2 |
| G58C G140C | -4.02 |
| C57U C103G | -1.7 |
| G58C C87G | ≤ -4.2 |
| U56C U102G A142G | -3.95 |
| U55G C75G C76G G84U C118A U139C | ≤ -4.2 |
| G58A C96U | 0.538 |
| G58A G59A C96A | 0.0408 |
| U56A G62A A97G C103A | -3.45 |

| Variant | polymerase ribozyme fitness (log ratio) |
| --- | --- |
| G58A C79U | -1.65 |
| C57A G140A | ≤ -4.2 |
| U56G A73G U101C A119G U148C | -4.08 |
| U56A C96U U101C U139G | -0.437 |
| G58A C93A G112C | -4.12 |
| U55G C118U | -1.23 |
| C57G G117U G124C | -1.64 |
| U55G G83U C95U A147C | -1.88 |
| U56C C85G C149A | ≤ -4.2 |
| C57G C75U G86A A91C | ≤ -4.2 |
| C57U C95G A120G G143A | -2.18 |
| U56G G65C G67C C85A C93G C118U C149A | ≤ -4.2 |
| U56G C72U | -0.106 |
| U56A G100U | -4.09 |
| C57G G59A C118U C125A G136C | -3.19 |
| U56A G68C U77A C96G U104G C108U G141C | ≤ -4.2 |
| G58U A89G | -0.659 |
| U56G G84U | -2.16 |
| C57G G59A G80U G92U C99A C131U U135A | -3.22 |
| C57U U102G | -1.87 |
| U55G G59A G83A A98C C116G U127G | -4.04 |
| G58A A73G G88C A150U | ≤ -4.2 |
| C57G C103G | -2.16 |
| G58A G88C G92A C96A | ≤ -4.2 |

| Variant | polymerase ribozyme fitness (log ratio) |
| --- | --- |
| U56A A73U C87G C99G | ≤ -4.2 |
| G58A C87A | ≤ -4.2 |
| C57A G62A G86A A113G A120U U127C G136A A142C | ≤ -4.2 |
| C57A A73U G84A U135A | -2.22 |
| U56C C93U U101G C103U G136C | -4.09 |
| U56C G58U C114U A119U | -1.67 |
| U56C G83A C87G C123U G141A | ≤ -4.2 |
| U55G G59A | -2.25 |
| U56A A73G C76U | 0.764 |
| U56A U82G C87G A91C | ≤ -4.2 |
| U55G G94A | -1.43 |
| C57U G68U | -3.89 |
| C57U C75A G88C G133U | ≤ -4.2 |
| C57A G68C C85A U134A U146C | ≤ -4.2 |
| U56C G133U | -4.01 |
| U56A G74U C85G G133U | ≤ -4.2 |
| G58C A60G G92A A121U | -2.24 |
| U56A C149A | -3.67 |
| G58C A60C G94A G100C C103A | ≤ -4.2 |
| U55G G83A A115C C123U G136U | -2.92 |
| G58C A106C | 0.355 |
| U55G C69U U78A A91U C93U G141A | ≤ -4.2 |
| U56A C96U G126A | -0.336 |
| U56A C57A C85G | -0.79 |

| Variant | polymerase ribozyme fitness (log ratio) |
| --- | --- |
| G58A G83A C87U U101G G141C | -3.39 |
| G58C A73G C85G | -2.21 |
| U56A C96U A119U | -0.585 |
| G58A U61G | -1.49 |
| G58C G84U A97U | -3.58 |
| U56G U78C C99G G124C C125U | -2.94 |
| U56A A107U | -2.87 |
| C57U G124U G128U | -3.76 |
| C57U G86A A120G G141C | -2.82 |
| U55G G86U A89G A121C A147U | -3 |
| U56A C63U A64U G84A G128A | ≤ -4.2 |
| U56G G59A G81U A89C G92U U139A | ≤ -4.2 |
| C57U G80A | -0.314 |
| U56A C105U A121C G133U G140U | ≤ -4.2 |
| U56A C99G G140U | -3.99 |
| U56A U78A C79A | ≤ -4.2 |
| C57G C87U A89C C116A C132A | -4.13 |
| G58C A122U A142G G143A | -4.05 |
| C57U C76U A98G | -0.421 |
| U56G U102C | -1.91 |
| U56C G74U C76U G84U C125G A138C | ≤ -4.2 |
| C57G G71U C72G G84U G133U A137U | ≤ -4.2 |
| G58A C87G C116A A147C U151A | ≤ -4.2 |
| G58C A119C | -0.0646 |

| Variant | polymerase ribozyme fitness (log ratio) |
| --- | --- |
| C57G G84U | -1.79 |
| C57G G84A | -0.518 |
| G58A C95U G143C | -1.9 |
| G58C A150U | 1.46 |
| G58U A60G | 0.208 |
| U56G C85A | -2.05 |
| U56G C85U | -1.42 |
| C57U G81C A106U | -1.74 |
| U56A G81U C93U G141C | -1.52 |
| U56A C72U C76U C85U | -1.17 |
| U56G C75G C93U | -4.19 |
| C57A A98G C123G U145G | 0.398 |
| C57G C69A | -2.56 |
| C57G C87A U144C | -3.75 |
| C57G A113G | -3.44 |
| U56A U61A C114G | -3.96 |
| G58A G143U | -1.82 |
| U56G A60G G84A | -0.664 |
| C57G G94C C114G C118A | ≤ -4.2 |
| U55G C87U G92A U101G G143U | -3.33 |
| G58C G126U U145G | -3.82 |
| U55G G59C G86A C103U U146C | -2.47 |
| U56G G59A | -1.14 |
